This passage reports protein stability index results from the supplement of paper PMC10567573.

B1: CCNC (parent)
chain: QSSHYLQWILDKQDLLKERQKDLK
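Also: lentivirally expressed fusions sorted by FACS into six bins by GFP to DsRed ratio, PSI derived from sequencing read proportions per bin multiplied by bin number.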

The data set covers variants of B1. Description: protein stability index of a GFP-peptide fusion (GPS, HEK-293T) (PSI 1-6); higher = more stable. The conditions noted are these: c terminus: a fixed tail appended.
For QSSHYLQWQLDKQDLLKERQKDLK [I9Q], the protein stability index was 4.21.

Turning to QSSHYLQWDLDKQDLLKERQKDLK [I9D], the protein stability index came to 4.82.

In the case of QSSHYLQWHLDKQDLLKERQKDLK [I9H], the protein stability index was found to be 3.64.

For the variant QSSHYLQWKLDKQDLLKERQKDLK [I9K], the protein stability index stood at 4.09.

In the case of QSSHYLQWRLDKQDLLKERQKDLK [I9R], the protein stability index is 4.12.

With QSSHYLQWMLDKQDLLKERQKDLK [I9M], the protein stability index worked out at 3.53.

In the case of QSSHYLQWNLDKQDLLKERQKDLK [I9N], the protein stability index worked out at 4.01.

Regarding QSSHYLQWLLDKQDLLKERQKDLK [I9L], the protein stability index was determined as 3.36.

Take QSSHYLQWCLDKQDLLKERQKDLK [I9C]: the protein stability index was determined as 3.9.

Turning to QSSHYLQWYLDKQDLLKERQKDLK [I9Y], the protein stability index was found to be 3.32.

Consider QSSHYLQWGLDKQDLLKERQKDLK [I9G], for which the protein stability index came to 3.67.

Consider QSSHYLQWPLDKQDLLKERQKDLK [I9P], for which the protein stability index is 4.6.

In the case of QSSHYLQWTLDKQDLLKERQKDLK [I9T], the protein stability index worked out at 3.74.

Consider QSSHYLQWSLDKQDLLKERQKDLK [I9S], for which the protein stability index worked out at 4.

With QSSHYLQWALDKQDLLKERQKDLK [I9A], the protein stability index stood at 4.27.

Regarding QSSHYLQWWLDKQDLLKERQKDLK [I9W], the protein stability index amounted to 3.83.

In the case of QSSHYLQWELDKQDLLKERQKDLK [I9E], the protein stability index is 4.87.

QSSHYLQWFLDKQDLLKERQKDLK [I9F]: the protein stability index stood at 3.98.

With QSSHYLQWVLDKQDLLKERQKDLK [I9V], the protein stability index turned out to be 3.09.

Consider QSSHYLQWILDKQTLLKERQKDLK [D14T], for which the protein stability index was found to be 3.36.

QSSHYLQWILDKQYLLKERQKDLK [D14Y]: the protein stability index was 2.61.

Regarding QSSHYLQWILDKQMLLKERQKDLK [D14M], the protein stability index amounted to 2.97.

As to QSSHYLQWILDKQELLKERQKDLK [D14E], the protein stability index came out at 4.29.

With QSSHYLQWILDKQILLKERQKDLK [D14I], the protein stability index amounted to 2.55.

For the variant QSSHYLQWILDKQPLLKERQKDLK [D14P], the protein stability index was determined as 3.17.

Regarding QSSHYLQWILDKQLLLKERQKDLK [D14L], the protein stability index came to 2.8.

With QSSHYLQWILDKQHLLKERQKDLK [D14H], the protein stability index is 2.83.

As for QSSHYLQWILDKQRLLKERQKDLK [D14R], the protein stability index was determined as 2.7.

Take QSSHYLQWILDKQALLKERQKDLK [D14A]: the protein stability index came to 2.58.

As to QSSHYLQWILDKQCLLKERQKDLK [D14C], the protein stability index was found to be 2.79.

Turning to QSSHYLQWILDKQQLLKERQKDLK [D14Q], the protein stability index is 3.48.

On to QSSHYLQWILDKQGLLKERQKDLK [D14G], for which the protein stability index amounted to 3.8.

In the case of QSSHYLQWILDKQVLLKERQKDLK [D14V], the protein stability index was determined as 2.9.

Regarding QSSHYLQWILDKQSLLKERQKDLK [D14S], the protein stability index was determined as 2.55.

For the variant QSSHYLQWILDKQNLLKERQKDLK [D14N], the protein stability index turned out to be 3.39.

For the variant QSSHYLQWILDKQWLLKERQKDLK [D14W], the protein stability index came to 2.73.

As to QSSHYLQWILDKQFLLKERQKDLK [D14F], the protein stability index worked out at 2.22.

QSSHYLQWILDKQKLLKERQKDLK [D14K]: the protein stability index worked out at 3.65.

Regarding QSSHYLQWILDDQDLLKERQKDLK [K12D], the protein stability index was found to be 4.21.

As to QSSHYLQWILDWQDLLKERQKDLK [K12W], the protein stability index came out at 1.52.

For QSSHYLQWILDYQDLLKERQKDLK [K12Y], the protein stability index came out at 2.75.

Take QSSHYLQWILDFQDLLKERQKDLK [K12F]: the protein stability index turned out to be 2.25.

For QSSHYLQWILDMQDLLKERQKDLK [K12M], the protein stability index worked out at 1.92.

Regarding QSSHYLQWILDAQDLLKERQKDLK [K12A], the protein stability index amounted to 2.73.

On to QSSHYLQWILDLQDLLKERQKDLK [K12L], for which the protein stability index is 1.72.

Turning to QSSHYLQWILDHQDLLKERQKDLK [K12H], the protein stability index is 2.83.

Turning to QSSHYLQWILDIQDLLKERQKDLK [K12I], the protein stability index is 1.71.

For QSSHYLQWILDEQDLLKERQKDLK [K12E], the protein stability index turned out to be 3.66.

As to QSSHYLQWILDPQDLLKERQKDLK [K12P], the protein stability index is 3.29.

Take QSSHYLQWILDSQDLLKERQKDLK [K12S]: the protein stability index came to 1.98.

On to QSSHYLQWILDQQDLLKERQKDLK [K12Q], for which the protein stability index was found to be 3.25.

With QSSHYLQWILDNQDLLKERQKDLK [K12N], the protein stability index came out at 2.79.

In the case of QSSHYLQWILDCQDLLKERQKDLK [K12C], the protein stability index was 2.46.

In the case of QSSHYLQWILDTQDLLKERQKDLK [K12T], the protein stability index is 2.01.

With QSSHYLQWILDGQDLLKERQKDLK [K12G], the protein stability index was found to be 2.41.

On to QSSHYLQWILDVQDLLKERQKDLK [K12V], for which the protein stability index was 2.34.

As to QSSHYLQWIEDKQDLLKERQKDLK [L10E], the protein stability index amounted to 4.29.

Turning to QSSHYLQWIMDKQDLLKERQKDLK [L10M], the protein stability index was found to be 3.41.

Regarding QSSHYLQWISDKQDLLKERQKDLK [L10S], the protein stability index was 4.

In the case of QSSHYLQWIGDKQDLLKERQKDLK [L10G], the protein stability index was 3.76.

As to QSSHYLQWIYDKQDLLKERQKDLK [L10Y], the protein stability index was 3.42.

As for QSSHYLQWIIDKQDLLKERQKDLK [L10I], the protein stability index stood at 2.97.

For QSSHYLQWIKDKQDLLKERQKDLK [L10K], the protein stability index is 3.6.

With QSSHYLQWIRDKQDLLKERQKDLK [L10R], the protein stability index turned out to be 3.61.

In the case of QSSHYLQWIHDKQDLLKERQKDLK [L10H], the protein stability index came out at 3.52.

For QSSHYLQWITDKQDLLKERQKDLK [L10T], the protein stability index is 3.34.

In the case of QSSHYLQWIFDKQDLLKERQKDLK [L10F], the protein stability index came to 3.4.

Regarding QSSHYLQWIADKQDLLKERQKDLK [L10A], the protein stability index was 4.22.

On to QSSHYLQWIVDKQDLLKERQKDLK [L10V], for which the protein stability index was 3.09.

As to QSSHYLQWICDKQDLLKERQKDLK [L10C], the protein stability index was 3.86.

Consider QSSHYLQWIDDKQDLLKERQKDLK [L10D], for which the protein stability index worked out at 4.49.

In the case of QSSHYLQWIPDKQDLLKERQKDLK [L10P], the protein stability index stood at 4.58.

Take QSSHYLQWINDKQDLLKERQKDLK [L10N]: the protein stability index is 4.17.

On to QSSHYLQWIWDKQDLLKERQKDLK [L10W], for which the protein stability index came to 2.54.

For QSSHYLQWIQDKQDLLKERQKDLK [L10Q], the protein stability index was found to be 4.22.

As for QSSHYLNWILDKQDLLKERQKDLK [Q7N], the protein stability index was 2.84.

As to QSSHYLDWILDKQDLLKERQKDLK [Q7D], the protein stability index amounted to 3.9.

In the case of QSSHYLIWILDKQDLLKERQKDLK [Q7I], the protein stability index was 1.94.

In the case of QSSHYLMWILDKQDLLKERQKDLK [Q7M], the protein stability index was found to be 3.79.

Take QSSHYLVWILDKQDLLKERQKDLK [Q7V]: the protein stability index was 1.97.

As to QSSHYLAWILDKQDLLKERQKDLK [Q7A], the protein stability index is 2.39.

Regarding QSSHYLPWILDKQDLLKERQKDLK [Q7P], the protein stability index came to 3.31.

As for QSSHYLLWILDKQDLLKERQKDLK [Q7L], the protein stability index stood at 2.22.

For QSSHYLSWILDKQDLLKERQKDLK [Q7S], the protein stability index turned out to be 2.65.

Turning to QSSHYLWWILDKQDLLKERQKDLK [Q7W], the protein stability index was 2.1.

Take QSSHYLFWILDKQDLLKERQKDLK [Q7F]: the protein stability index is 1.57.

As for QSSHYLEWILDKQDLLKERQKDLK [Q7E], the protein stability index turned out to be 2.73.

QSSHYLGWILDKQDLLKERQKDLK [Q7G]: the protein stability index is 3.23.

As for QSSHYLKWILDKQDLLKERQKDLK [Q7K], the protein stability index worked out at 2.84.

For the variant QSSHYLHWILDKQDLLKERQKDLK [Q7H], the protein stability index turned out to be 3.58.

In the case of QSSHYLRWILDKQDLLKERQKDLK [Q7R], the protein stability index worked out at 2.37.

On to QSSHYLTWILDKQDLLKERQKDLK [Q7T], for which the protein stability index came to 3.66.

As for QSSHYLCWILDKQDLLKERQKDLK [Q7C], the protein stability index came to 2.42.

With QSSHYLYWILDKQDLLKERQKDLK [Q7Y], the protein stability index was determined as 2.85.
